Data: paper PMC12207370, “Macrocyclic Peptide Probes for Immunomodulatory Protein CD59: Potent Modulators of Bacterial Toxin Activity and Antibody‐Dependent Cytotoxicity” (Angewandte Chemie (International Ed. in English), 2025)

T1: CD59 (immobilized for SPR), P13987
T1 chain: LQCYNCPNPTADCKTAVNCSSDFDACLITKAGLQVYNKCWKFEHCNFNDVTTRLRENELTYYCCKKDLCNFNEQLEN


Molecular target: T1, CD59 (immobilized for SPR), P13987
Test: SPR
Details: chain shown with the change; n = 1

Question: With YSWTAGNRSSVRGC [CP-06 W5A] as the binder, how does the ratio to parent read?
Answer: 19

Question: How did the ratio to parent turn out when YSWTWANRSSVRGC [CP-06 G6A] was run?
Answer: 21

Question: YSWTWGARSSVRGC [CP-06 N7A] was tested. Which ratio to parent did it give?
Answer: 19

Same assay, conditions: chain shown with the change; n = 1; parent: est. 8.0; read off a plot

Question: How did the other: pKD (-Log10(KD)) turn out when YSWTWGNRSAVRGC [CP-06 S10A] was run?
Answer: 8

Question: Which other: pKD (-Log10(KD)) does the source give for YSWTAGNRSSVRGC [CP-06 W5A] here?
Answer: 6.7

Question: How did the other: pKD (-Log10(KD)) turn out when YAWTWGNRSSVRGC [CP-06 S2A] was run?
Answer: 7.9

Question: YSWTWANRSSVRGC [CP-06 G6A] was tested. Which other: pKD (-Log10(KD)) did it give?
Answer: 6.7

Question: How did the other: pKD (-Log10(KD)) turn out when YSWAWGNRSSVRGC [CP-06 T4A] was run?
Answer: 7.8

Question: How did the other: pKD (-Log10(KD)) turn out when YSWTWGARSSVRGC [CP-06 N7A] was run?
Answer: 6.7

Question: Which other: pKD (-Log10(KD)) does the source give for YSWTWGNASSVRGC [CP-06 R8A] here?
Answer: 7.8

Question: How did the other: pKD (-Log10(KD)) turn out when YSWTWGNRSSARGC [CP-06 V11A] was run?
Answer: 7.6

Question: How did the other: pKD (-Log10(KD)) turn out when YSWTWGNRSSVAGC [CP-06 R12A] was run?
Answer: 7.1

Question: For YSWTWGNRASVRGC [CP-06 S9A], which other: pKD (-Log10(KD)) is on record?
Answer: 7.7
